Assay results published in US10053447B2, “Fluorescent compounds” (Pierce Biotechnology, Inc, priority 2010, dated 2018).

How the values were obtained:
streptavidin (SA) = streptavidin (SA) (Streptomyces avidinii, UniProt P22629); test: Labeling efficiency (degree of labeling, mole dye to mole protein ratio) of streptavidin; conditions: for Compound/Protein SA in PBS purified by PDRR / Compound/Protein SA in PBS purified by gel filtration: PBS pH 7.2; for Compound/Protein SA in PBS purified by PDRR / Compound/Protein SA in PBS purified by gel filtration / Compound/Protein SA in borate purified by gel PDRR / Compound/Protein SA in borate purified by gel filtration: molar excess given in the label; for Compound/Protein SA in borate purified by gel PDRR / Compound/Protein SA in borate purified by gel filtration: borate buffer pH 8.5
Protocol: Inventive and commercial compounds, each as the NHS ester, were conjugated to goat anti-mouse (GAM), goat anti-rabbit (GAR) antibodies, and streptavidin (SA). GAM, GAR, and SA, at 10 mg/ml in phosphate buffered saline (PBS), were dialyzed against 50 mM borate buffer, pH 8.5. The compounds were reconstituted in dimethylformamide (DMF) at 10 mg/ml and combined at 2×, 4×, 5×, 7.5×, or 10× molar excess with GAM, GAR, or SA for 2 h at room temperature to label the antibodies or SA.
The labeled compounds, also termed dyes or labels, were subjected to PDDR to remove the unlabeled (free) compound; 100 μl of the packed resin was used per mg of protein purified. The purified antibody-labeled dyes were then diluted 1:50 in PBS and scanned for absorbance from 700 nm to 230 nm to determine the protein concentration, and to determine the mole dye to mole protein ratio. Each conjugate was diluted 1:10 in 50% glycerol and heated in the presence of 10 mM dithiothreitol (DTT) for 5 min at 95° C., then separated by electrophoresis on polyacrylamide gels in the presence of sodium dodecyl sulfate (SDS-PAGE). The gels were scanned using the Typhoon 9400 Imager to verify removal of the unconjugated compound. Labeling efficiency was compared, with results showing degree of labeling below.
Compounds 1, 2, and 3, each as the NHS ester, and DyLight 649-NHS were conjugated to goat anti-mouse (GAM) and goat anti-rabbit (GAR) antibodies. GAM and GAR, at a concentration of 10 mg/ml in phosphate buffered saline (PBS), were dialyzed against 50 mM borate buffer, pH 8.5. The compounds were reconstituted in dimethylformamide (DMF) at 10 mg/ml. To label the antibodies, the compounds were added at 2.5× molar excess and 5× molar excess for 2 h at room temperature. Streptavidin (SA) was reconstituted in PBS buffer, pH 7.2, and 50 mM borate buffer, pH 8.5, and labeled with 2.5× molar excess and 4× molar excess of the compound.
The antibody-labeled compounds, also termed dyes or labels, were subjected to gel filtration chromatography (15 cm×0.8 cm columns) or to the PDDR to remove the unlabeled (free) compound; 100 μl of the packed resin was used per mg of protein purified. The purified antibody-labeled dyes were then diluted 1:100 in PBS and scanned for absorbance from 700 nm to 230 nm to determine the protein concentration, and to determine the mole dye to mole protein ratio. Each conjugate was diluted 1:10 in 50% glycerol and heated in the presence of 10 mM dithiothreitol (DTT) for 5 min at 95° C., then separated by electrophoresis on polyacrylamide gels in the presence of sodium dodecyl sulfate (SDS-PAGE). The gels were scanned using the Typhoon 9400 Imager to verify removal of the unconjugated compound. Labeling efficiency was compared using labeling of the compounds to GAM antibody at a 2.5× molar excess of compound, with results shown below.
Labeling efficiency was also compared using labeling of the dyes to streptavidin (SA) at either a 2.5 fold or a 4 fold molar excess of the dye, with SA in PBS, pH 7.2, and borate buffer, pH 8.5.
650 Compound 1 (isomer 2)-TFP, 650 Compound 1 (isomer 1)-TFP, 650 Compound 1 (isomer 2)-TFP, 650 Compound 1-NHS, and DyLight 649-NHS were conjugated to GAM, GAR, and SA. GAM and GAR, at a concentration of 10 mg/ml in phosphate buffered saline (PBS), were dialyzed against 50 mM borate buffer, pH 8.5. The compounds were reconstituted in dimethylformamide (DMF) at 10 mg/ml and used to label antibodies at 5× molar excess of compound for two hours at room temperature to label the antibodies. SA was reconstituted in 50 mM borate buffer, pH 8.5, and combined with 4× molar excess to label the SA.
The antibody-conjugated and SA-conjugated compounds, also termed dyes or labels, were subjected to the PDDR to remove the unlabeled (free) compound. The purified antibodies and SA were then diluted 1:25 in PBS and scanned for absorbance from 700 nm to 230 nm to determine the protein concentration, and to determine the mole dye to mole protein ratio. […]

[1] = Storage stability at 50° C. under argon; assay type: physicochemical
Protocol: (§1) The inventive compounds were evaluated for stability. All compounds were packed under argon in plastic vials. The vials sere sealed with a drying pad in an aluminium coated pouch, and then stored at 50° C. for seven days. The results of the stability study for selected compounds are shown below:
Purity was determined based on ester activity.
as §1, with “stability compared to commercial dyes.” for “stability.”, “argon as 1 mg portions” for “argon”, “14” for “seven”
The inventive compound 755 Compound 1 (isomer 1)-NHS was evaluated for stability. The compound was packed under argon in plastic vials. The vials sere sealed with a drying pad in an aluminium coated pouch, and then stored at 50° C. for 14 days. Purity was determined by HPLC before and after storage.

U2OS cells; A550 cells = test: Immunofluorescence cell based assays, summary statements; design: species or system human; conditions: GAM and GAR conjugates
Protocol: The inventive compounds and commercial dye were evaluated for immunofluorescence in cell based assays using the following protocol. Plates containing U2OS cells (human osteosarcoma cell line) were fixed in 4% paraformaldehyde in PBS/0.1% Triton X-100 for 15 min at room temperature. The cells were then permeabilized with 2% BSA in PBS/0.1% Triton X-100 for 30 min at room temperature. Diluted primary antibodies in PBS/0.1% Triton X-100 were added to the plates and incubated overnight at 4° C. The plates were washed 3×100 μl with PBS. Based on the calculated protein concentrations, the conjugates were diluted to 4 μg/ml (1:250 from 1 mg/ml stock) in PBS/0.1% Triton X-100 and added to the plates (50 μl/well) and incubated 1 h in the dark at room temperature. The plates were washed 3×100 μl with PBS. One hundred μl of 2 μg/ml Hoechst dye in PBS was added per well. The plates were then scanned on an ArrayScan® Plate Reader for imaging and quantitation.
The inventive compounds and commercial dyes were evaluated for immunofluorescence in cell based assays using the following protocol. Plates containing A550 cells (adenocarcinoma human alveolar basal epithelial cells, P5, Sep. 23, 2010) and stored at −80° C. were placed at 50° C. for 30 min. The storage buffer (PBS) was removed and then the cells were permeabilized for 15 min (100 μl/well) with 0.1% Triton-X100 in 1×PBS buffer. The plates were blocked for 30 min in 2% BSA in 1×PBS-0.1% Triton-X100 and then incubated with primary antibodies diluted in 2% BSA in 1×PBS, 0.1% Trion-X100, overnight at 4° C. […] The remaining wells were incubated in blocking buffer only (no primary antibody). After overnight incubation, the antibody solution was removed from the wells, and the plates were washed with PBS-Tween (2×100 μl/well). The labeled secondary antibody conjugates, diluted to 4 μg/ml in PBS were added to corresponding wells and incubated for 1 h at room temperature (about 20° C. to about 22° C.). The plates were washed 3×100 μl/well with PBS and Hoechst stain diluted 1 μg/ml in PBS were added to each well (100 μl/well) of each plate. The plates were then scanned on the Thermo Scientific ArrayScan® HCS Reader for imaging and quantitation.

[2] = Spectral properties of the dyes compared with commercially available dyes; assay type: physicochemical; conditions: reactive ester form of the dye
[3] = unit size 1 mg, 50° C. for seven days, purity based on ester activity
[4] = amount 1 mg, 50° C. for 14 days (650 series)

| Purity at day 1 [1, 3] [%] | Purity at day 7 [1, 3] [%] | Compound | Compound/Protein SA in PBS purified by PDRR (streptavidin (SA)) | Compound/Protein SA in PBS purified by gel filtration (streptavidin (SA)) | Compound/Protein SA in borate purified by gel PDRR (streptavidin (SA)) | Compound/Protein SA in borate purified by gel filtration (streptavidin (SA)) | also measured |
| --- | --- | --- | --- | --- | --- | --- | --- |
| – | – | COCCN1/C(=C/C=C/C=C/C2=[N+](CCCCCC(=O)Oc3c(F)c(F)cc(F)c3F)c3ccc(S(=O)(=O)[O-])cc3C2(C)CCCS(=O)(=O)O)C(C)(CCCS(=O)(=O)O)c2cc(S(=O)(=O)O)ccc21 (single isomer, unassigned) [650 Compound 1 (isomer 2)-TFP] | – | – | – | – | SA (4X) Average (mole dye to mole protein ratio) (streptavidin (SA); TFP or NHS ester, 4X molar excess, borate buffer pH 8.5, PDRR): 2.42 |
| 98 | 97 | COCCN1/C(=C/C=C/C2=[N+](CCCCCC(=O)NCCN3C(=O)C=CC3=O)c3ccc(S(=O)(=O)[O-])cc3C2(C)CCCS(=O)(=O)O)C(C)(CCCS(=O)(=O)O)c2cc(S(=O)(=O)O)ccc21 (single isomer, unassigned) [550 Compound 1(isomer 2)-maleimide] | – | – | – | – | – |
| – | – | DyLight 649-SA (2.5X): DyLight 649 conjugated to streptavidin (SA); suffix gives molar excess of dye [reference compound] | 2.6 | 3.5 | 2.2 | 2.3 | Compound/Protein SA in borate purified by gel PDRR (streptavidin (SA); listed as DyLight 649-SA-4X): 2.9; Compound/Protein SA in borate purified by gel filtration (streptavidin (SA); listed as DyLight 649-SA-4X): 3.5 |
| – | – | Cy5-SA (2.5X): Cy5 conjugated to streptavidin (SA) [reference compound] | 3.8 | 4.2 | 2.0 | 2.3 | Compound/Protein SA in borate purified by gel PDRR (streptavidin (SA); listed as Cy5-SA-4X): 3.3; Compound/Protein SA in borate purified by gel filtration (streptavidin (SA); listed as Cy5-SA-4X): 3.8 |
| – | – | Alexa 647-SA-(2.5X): Alexa 647 conjugated to streptavidin (SA) [reference compound] | 3.5 | 3.9 | 2.4 | 2.6 | Compound/Protein SA in borate purified by gel PDRR (streptavidin (SA); listed as Alexa647-SA-4X): 3.4; Compound/Protein SA in borate purified by gel filtration (streptavidin (SA); listed as Alexa647-SA-4X): 3.9 |
| 97 | 96 | COCCN1/C(=C/C=C/C2=[N+](CCCCCC(=O)Oc3c(F)c(F)cc(F)c3F)c3ccc(S(=O)(=O)[O-])cc3C2(C)CCCS(=O)(=O)O)C(C)(CCCS(=O)(=O)O)c2cc(S(=O)(=O)O)ccc21 (single isomer, unassigned) [550 Compound 1 (isomer 1)-TFP] | – | – | – | – | – |
| 99 | 97 | COCCN1/C(=C/C=C/C2=[N+](CCCCCC(=O)NCCN3C(=O)C=CC3=O)c3ccc(S(=O)(=O)[O-])cc3C2(C)CCCS(=O)(=O)O)C(C)(CCCS(=O)(=O)O)c2cc(S(=O)(=O)O)ccc21 (single isomer, unassigned) [550 Compound 1(isomer 1)-maleimide] | – | – | – | – | – |
| – | – | COCCN1/C(=C/C=C/C2=[N+](CCCCCC(=O)O)c3ccc(S(=O)(=O)[O-])cc3C2(C)CCCS(=O)(=O)O)C(C)(CCCS(=O)(=O)O)c2cc(S(=O)(=O)O)ccc21 (stereo not shown) [550 Compound 1, 2-{(E)-3-[1-(5-carboxypentyl)-3-methyl-5-sulfo-3-(3-sulfopropyl)-1,3-dihydro-indol-(2E)-ylidene]-propenyl}-1-(2-methoxy-ethyl)-3-methyl-5-sulfo-3-(3-sulfo-propyl)-3H-indolium] | – | – | – | – | Immunofluorescence performance of conjugates compared with commercial DyLight dye (U2OS cells; A550 cells): at least similar performance to DyLight 549 conjugates (GAM, GAR), and in some cases superior performance |
| – | – | COCCN1/C(=C/C=C/C=C/C2=[N+](CCCCCC(=O)Oc3c(F)c(F)cc(F)c3F)c3ccc(S(=O)(=O)[O-])cc3C2(C)CCCS(=O)(=O)O)C(C)(CCCS(=O)(=O)O)c2cc(S(=O)(=O)O)ccc21 (stereo not shown) [650 Compound 1-TFP] | – | – | – | – | Emission (Em) [2]: 672 nm; Excitation (Ex) [2]: 654 nm; ε [2]: 250,000 M−1cm−1; Purity at day 1 [1, 4]: 98%; Purity at day 14 [1, 4]: 97% |
